According to PMC4434323:

System: T1, C34D1.1 (C34D1.1) (Caenorhabditis elegans)
T1 sequence: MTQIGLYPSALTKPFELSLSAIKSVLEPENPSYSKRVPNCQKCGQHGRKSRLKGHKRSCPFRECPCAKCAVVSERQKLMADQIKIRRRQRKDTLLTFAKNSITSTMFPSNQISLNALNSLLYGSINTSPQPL

Sequence	binding signal (PBM E-score (-0.5 to 0.5))
AAACATTT (double strand) [8-mer AAACATTT]	0.473
ATGAAACA (double strand) [8-mer ATGAAACA]	0.486
ATTGTTTC (double strand) [8-mer ATTGTTTC]	0.487
AGTGTTTC (double strand) [8-mer AGTGTTTC]	0.47
GAAACATA (double strand) [8-mer GAAACATA]	0.488
ATAGTTTC (double strand) [8-mer ATAGTTTC]	0.47
TGTTTCAA (double strand) [8-mer TGTTTCAA]	0.485
TGAAACAA (double strand) [8-mer TGAAACAA]	0.485

Target: T2, Y48G1C.6 (Y48G1C.6) (Caenorhabditis elegans) (UniProt Q9N3P2)
T2 sequence: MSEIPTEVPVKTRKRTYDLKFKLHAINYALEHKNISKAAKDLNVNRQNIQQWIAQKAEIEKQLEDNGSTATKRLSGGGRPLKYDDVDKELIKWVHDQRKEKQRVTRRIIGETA

Sequence	binding signal (PBM E-score (-0.5 to 0.5))
CTTGCACC (double strand) [8-mer CTTGCACC]	0.494
GTCTTGCA (double strand) [8-mer GTCTTGCA]	0.494
CCTGCAAG (double strand) [8-mer CCTGCAAG]	0.493
ACTTGCAT (double strand) [8-mer ACTTGCAT]	0.493
ATGCAAGA (double strand) [8-mer ATGCAAGA]	0.495
CTGCAAGA (double strand) [8-mer CTGCAAGA]	0.494
AGTGCAAG (double strand) [8-mer AGTGCAAG]	0.493
ACTTGCAC (double strand) [8-mer ACTTGCAC]	0.495
AACTTGCA (double strand) [8-mer AACTTGCA]	0.494
ACTGCAAG (double strand) [8-mer ACTGCAAG]	0.493
ACTTGCAG (double strand) [8-mer ACTTGCAG]	0.494
CATGCAAG (double strand) [8-mer CATGCAAG]	0.496
GCATGCAA (double strand) [8-mer GCATGCAA]	0.496
ATCTTGCA (double strand) [8-mer ATCTTGCA]	0.495
GTGCAAGA (double strand) [8-mer GTGCAAGA]	0.494

System: T3, syd-9 (ZK867.1) (Caenorhabditis elegans)
T3 sequence: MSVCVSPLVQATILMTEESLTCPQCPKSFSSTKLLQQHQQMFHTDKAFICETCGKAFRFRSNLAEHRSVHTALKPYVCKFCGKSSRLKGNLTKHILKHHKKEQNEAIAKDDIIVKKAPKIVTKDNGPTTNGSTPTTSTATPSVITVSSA

Sequence	binding signal (PBM E-score (-0.5 to 0.5))
AACTGTAC (double strand) [8-mer AACTGTAC]	0.492
ACTGTACA (double strand) [8-mer ACTGTACA]	0.494
GACTGTAC (double strand) [8-mer GACTGTAC]	0.49
GAACTGTA (double strand) [8-mer GAACTGTA]	0.492
ACTGTAAT (double strand) [8-mer ACTGTAAT]	0.489
ACTGTACG (double strand) [8-mer ACTGTACG]	0.491
ACTGTACC (double strand) [8-mer ACTGTACC]	0.489

Target: dmd-4 (C27C12.6) (Caenorhabditis elegans) (UniProt Q18248)
Sequence (Q18248 1-114): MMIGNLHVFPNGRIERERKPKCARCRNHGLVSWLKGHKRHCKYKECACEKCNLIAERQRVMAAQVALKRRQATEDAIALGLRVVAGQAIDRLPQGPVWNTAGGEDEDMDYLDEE

Sequence	binding signal (PBM E-score (-0.5 to 0.5))
AAGATACA (double strand) [8-mer AAGATACA]	0.477
ATGATACA (double strand) [8-mer ATGATACA]	0.485
TAGATACA (double strand) [8-mer TAGATACA]	0.491
AGATACAT (double strand) [8-mer AGATACAT]	0.492
GATACATA (double strand) [8-mer GATACATA]	0.482
TGATACAA (double strand) [8-mer TGATACAA]	0.489
AAAGTATC (double strand) [8-mer AAAGTATC]	0.492
CATGTATC (double strand) [8-mer CATGTATC]	0.483

Target: ZC328.2 (ZC328.2) (Caenorhabditis elegans) (UniProt O02050)
Sequence (O02050 entry or part of it): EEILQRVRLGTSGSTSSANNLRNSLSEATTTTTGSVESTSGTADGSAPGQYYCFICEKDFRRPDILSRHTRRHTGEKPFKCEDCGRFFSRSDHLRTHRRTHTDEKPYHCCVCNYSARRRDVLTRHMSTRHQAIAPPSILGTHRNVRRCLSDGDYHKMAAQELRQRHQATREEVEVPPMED

Sequence	binding signal (PBM E-score (-0.5 to 0.5))
CCCCCACG (double strand) [8-mer CCCCCACG]	0.48
CGCCCACC (double strand) [8-mer CGCCCACC]	0.484
CCCCCCGC (double strand) [8-mer CCCCCCGC]	0.486
CCGCCTAC (double strand) [8-mer CCGCCTAC]	0.488
CCCCACGC (double strand) [8-mer CCCCACGC]	0.485
CGCCCCCC (double strand) [8-mer CGCCCCCC]	0.487

Target: ztf-11 (F52F12.6) (Caenorhabditis elegans) (UniProt O02274)
Sequence (O02274 212-388): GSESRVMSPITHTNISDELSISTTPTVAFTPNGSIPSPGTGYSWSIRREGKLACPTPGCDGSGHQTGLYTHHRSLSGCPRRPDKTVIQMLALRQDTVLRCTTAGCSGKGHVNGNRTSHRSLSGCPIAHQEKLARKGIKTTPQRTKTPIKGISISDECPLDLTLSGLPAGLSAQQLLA

Sequence	binding signal (PBM E-score (-0.5 to 0.5))
AAACTTGC (double strand) [8-mer AAACTTGC]	0.485
AAAGTTTG (double strand) [8-mer AAAGTTTG]	0.494
AAACTTCG (double strand) [8-mer AAACTTCG]	0.487
AAGTTTCG (double strand) [8-mer AAGTTTCG]	0.483
AACTTTTG (double strand) [8-mer AACTTTTG]	0.48
AAACTTTG (double strand) [8-mer AAACTTTG]	0.481
AAGTTTGG (double strand) [8-mer AAGTTTGG]	0.485
CAAACTTC (double strand) [8-mer CAAACTTC]	0.48
AAGTTTGT (double strand) [8-mer AAGTTTGT]	0.487
AAGTTTGC (double strand) [8-mer AAGTTTGC]	0.483
AAGTTTGA (double strand) [8-mer AAGTTTGA]	0.48
AAAAGTTT (double strand) [8-mer AAAAGTTT]	0.492
AAGTTTTC (double strand) [8-mer AAGTTTTC]	0.48
CAAACTTG (double strand) [8-mer CAAACTTG]	0.487
GAAACTTC (double strand) [8-mer GAAACTTC]	0.481

Target: T4, ZK337.2 (ZK337.2) (Caenorhabditis elegans) (UniProt O46016)
T4 sequence: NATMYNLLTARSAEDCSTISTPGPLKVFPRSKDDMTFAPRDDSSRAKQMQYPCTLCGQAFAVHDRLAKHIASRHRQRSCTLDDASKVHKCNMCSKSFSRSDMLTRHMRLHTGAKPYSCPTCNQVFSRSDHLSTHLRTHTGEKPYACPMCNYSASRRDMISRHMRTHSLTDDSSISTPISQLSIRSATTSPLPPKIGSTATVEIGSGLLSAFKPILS

Sequence	binding signal (PBM E-score (-0.5 to 0.5))
CACCCCCA (double strand) [8-mer CACCCCCA]	0.482
CCGCCCCC (double strand) [8-mer CCGCCCCC]	0.495
CCACCCCC (double strand) [8-mer CCACCCCC]	0.485
CGCCCACA (double strand) [8-mer CGCCCACA]	0.484
GCCCCCGC (double strand) [8-mer GCCCCCGC]	0.489
CACCCACG (double strand) [8-mer CACCCACG]	0.484
CCACCCAC (double strand) [8-mer CCACCCAC]	0.491

Target: T5, egrh-3 (Y94H6A.11) (Caenorhabditis elegans) (UniProt U4PLQ8)
T5 sequence: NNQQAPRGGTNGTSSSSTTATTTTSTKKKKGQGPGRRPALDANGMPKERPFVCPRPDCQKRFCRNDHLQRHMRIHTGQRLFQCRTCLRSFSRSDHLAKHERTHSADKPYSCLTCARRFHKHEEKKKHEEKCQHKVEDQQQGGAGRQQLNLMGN

Sequence	binding signal (PBM E-score (-0.5 to 0.5))
AGGGGGGG (double strand) [8-mer AGGGGGGG]	0.498
CCCCCCCC (double strand) [8-mer CCCCCCCC]	0.5
AGGGGGGA (double strand) [8-mer AGGGGGGA]	0.493
CCCCCCCA (double strand) [8-mer CCCCCCCA]	0.496
AGGGGGAG (double strand) [8-mer AGGGGGAG]	0.493

Target: T6, Y53H1A.2 (Y53H1A.2) (Caenorhabditis elegans) (UniProt B1V8K4)
T6 sequence: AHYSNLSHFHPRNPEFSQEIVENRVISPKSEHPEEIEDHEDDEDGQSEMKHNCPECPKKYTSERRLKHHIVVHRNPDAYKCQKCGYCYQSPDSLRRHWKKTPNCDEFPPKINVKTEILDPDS

Sequence	binding signal (PBM E-score (-0.5 to 0.5))
CGCCCACC (double strand) [8-mer CGCCCACC]	0.484

Target: T7, C27D6.4 (C27D6.4) (Caenorhabditis elegans) (UniProt Q4JFH9)
T7 sequence: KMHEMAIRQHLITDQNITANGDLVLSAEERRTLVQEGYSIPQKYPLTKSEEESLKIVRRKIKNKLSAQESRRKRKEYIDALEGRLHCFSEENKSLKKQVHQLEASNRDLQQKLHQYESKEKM

Sequence	binding signal (PBM E-score (-0.5 to 0.5))
CACGTGGA (double strand) [8-mer CACGTGGA]	0.495
GACGTGGC (double strand) [8-mer GACGTGGC]	0.494
CACGTGTC (double strand) [8-mer CACGTGTC]	0.496
ACACGTGT (double strand) [8-mer ACACGTGT]	0.497
ACACGTGG (double strand) [8-mer ACACGTGG]	0.498
ACGTGGCG (double strand) [8-mer ACGTGGCG]	0.498
CACGTGTA (double strand) [8-mer CACGTGTA]	0.494
ACGTGTCA (double strand) [8-mer ACGTGTCA]	0.495
ACGTGGAT (double strand) [8-mer ACGTGGAT]	0.492
